From PMC11154709, “4S-fluorination of ProB29 in insulin lispro slows fibril formation” (The Journal of Biological Chemistry, 2024)

Legend:
Format in all cases: physicochemical
[1] = ANS fluorescence (conformational disorder); conditions: 1 μM lispro variant, 5 μM ANS, 100 mM phosphate, pH 8.0, ambient temperature, 350 nm excitation; mean ± SD, three separate HPLC fractions
Description: Figure 4 Fibrillation of lispro variants.A, lispro variants (60 μM in 100 mM phosphate buffer, pH 8.0) were incubated at 37 °C with vigorous shaking; fibril formation was monitored by ThT fluorescence. Fibrillation runs were performed on two separate HPLC fractions, each in triplicate or quadruplicate, on two separate days. B–E, TEM images of lispro (B), KP-4R-F (C), KP-4S-F (D), and KP-44-diF (E) aggregates. F, ANS emission spectra of lispro variants (1 μM lispro variant labeled with 5 μM ANS in 100 mM phosphate buffer, pH 8.0). The data presented here indicate the mean ± SD for each variant from measurements of three separate HPLC fractions. 44-diF, 4,4-difluoroproline; 4R-F, 4R-fluoroproline; 4S-F, 4S-fluoroproline; ThT, thioflavin T. […]
Lispro variants (1 μM) were mixed with 5 μM ANS in 100 mM phosphate buffer, pH 8.0. Fluorescence emission spectra were measured at ambient temperature (350 nm excitation). Measurements for each lispro were performed in triplicate from three separate HPLC fractions. […]
Transmission electron microscopy: […]
Lispro variants (1 µM) were mixed with 5 µM ANS in 100 mM phosphate buffer, pH 8.0.
Fluorescence emission spectra were measured in 1 cm quartz cuvettes at ambient temperature using a PTI QuantaMaster fluorescence spectrofluorometer. A 2 nm s -1 scan rate and 350 nm excitation wavelength were used. Measurements for each variant were performed in triplicate from three separate HPLC fractions.

[2] = system: zinc- and resorcinol-bound hexamer; experiment: Hexamer dissociation kinetics by CD after dilution; conditions: 250 μM ZnCl2, 25 mM resorcinol; for Hexamer dissociation t1/2: 600 μM insulin or lispro, 25 mM tris pH 8.0, 150-fold dilution, 25 °C, ellipticity at 222 nm over 120 s, at least two separate HPLC fractions, different days
Description: We measured the half-life (t1/2) for dissociation of the hexamer form of each lispro variant by monitoring the change in negative ellipticity at 222 nm over time after dilution (Figs. 3A, S4, and S5). Insulin and lispro variants were formulated to mimic the pharmaceutical formulation (600 μM insulin, 25 mM resorcinol, 250 μM ZnCl2); resorcinol was used as the phenolic ligand to slow dissociation ([30]). […] Monitoring dissociation processes faster than that of lispro is limited by the mixing time of this experiment, though comparisons to human insulin can still be made.
Samples were dialyzed overnight against 28.6 mM tris buffer, pH 8.0, then formulated as 600 μM insulin or lispro, 250 μM ZnCl2, 25 mM resorcinol, 25 mM tris, pH 8.0. A 20 μl aliquot of the formulation solution was injected into a stirred buffer solution containing 2.98 ml of 25 mM tris, pH 8.0 (150-fold dilution) at 25 °C. Ellipticity was monitored over 120 s at 222 nm. A typical run led to a rapid drop in CD signal as mixing occurred (∼5 s), then a gradual rise to an ellipticity representative of an insulin monomer. Data preceding the timepoint with the greatest negative ellipticity represented the mixing time and were omitted from further analysis. […] Dissociation data were fit to a mono-exponential function using Scipy (Python). The data presented here are from at least two separate HPLC fractions, measured on different days. […]
Circular dichroism spectroscopy: […]
Kinetic measurements: Insulin or lispro samples in 100 mM sodium phosphate buffer pH 8.0 were dialyzed overnight against 28.6 mM tris buffer, pH 8.0 (Slide -A-Lyzer dialysis cassettes, 3.5 kDa MWCO, ThermoFisher). Samples were formulated as follows: 600 µM lispro, 250 µM ZnCl 2, 25 mM resorcinol, 25 mM tris buffer, pH 8. A 20 µL volume of the insulin formulation was injected into a stirred buffer solution containing 2.98 mL of 25 mM tris, pH 8.0 in a 10 mm quartz cuvette (150-fold dilution). Ellipticity was m onitored at 222 nm over 120 s (1 s kinetic interval, 0.5 s time constant) at 25°C. A typical run led to a rapid drop in CD signal as mixing occurred (~5 s), then a gradual rise to an equilibrium ellipticity representative of an insulin monomer. Data preceding […]
omitted from further analysis. Runs were discarded if the maximum change in mean residue […]
remaining data were fit to a mono -exponential function using Scipy (Python); data presented here are from at least two separate HPLC fractions, measured on two different days.
An equilibrium spectrum for each protein was obtained after dilution; all spectra were indicative of an insulin monomer (Figure S3). The CD spectrum of lispro under pre -dilution formulation conditions was obtained using a 0.1 mm quartz cuvette. […]

[3] = Far-UV circular dichroism (secondary structure); conditions: for Ellipticity ratio (208/222 nm): 60 µM insulin or lispro variant, 100 mM phosphate, pH 8.0
Description: Figure 2 Biological activity and CD spectroscopy of lispro variants.A, lispros were injected subcutaneously into diabetic mice, and blood glucose was measured over time after injection. The data presented here represent the mean ± SD of 3 to 6 biological replicates. B–E, far-UV circular dichroism spectra (60 μM lispro in […] phosphate buffer, pH 8.0). […] 4R-F, 4R-fluoroproline; 4S-F, 4S-fluoroproline.
The secondary structure of each insulin lispro variant was probed by circular dichroism spectroscopy. […] All lispro samples were further analyzed by analytical ultracentrifugation (Fig. S3). To determine the dissociation constant of each variant, we fit the data to a reversible monomer-dimer equilibrium ([29]). […]
Circular dichroism spectroscopy:
Equilibrium measurements: The circular dichroism spectra of insulin or lispro samples (60 µM in
100 mM sodium phosphate, pH 8.0) were measured at 25°C in 1 mm quartz cuvettes using a step
size of 0.5 nm and averaging time of 1 s on an Aviv Model 430 Circular Dichroism
Spectrophotom eter. A reference buffer spectrum was subtracted from each sample spectrum. […]
Analytical ultracentrifugation: […]

Row | Substance | ANS emission maximum [1] | Hexamer dissociation t1/2 [2] | Ellipticity ratio (208/222 nm) ([3]; 25 °C) | hexamer dissociation ([2]; 600 μM protein, 150-fold dilution, pH 8.0, 25 °C, CD 222 nm) | oligomeric state at 60 μM ([3]; 60 μM, statement in discussion of CD spectra) | CD spectrum ([3]; far-UV CD, 60 μM lispro in 10 mM phosphate buffer, pH 8.0 (Fig. 2; SI: 100 mM sodium phosphate), 25 °C)
1 | KP-4R-F: insulin lispro with ProB29 replaced by 4R-fluoroproline | 464 ± 4 nm | 10.2 ± 1.6 s | 1.62 ± 0.06 | – | – | –
2 | KP-4S-F: insulin lispro with ProB29 replaced by 4S-fluoroproline | 463 ± 6 nm | 11.2 ± 3.3 s | 1.59 ± 0.06 | – | – | –
3 | KP-44-diF: insulin lispro with ProB29 replaced by 4,4-difluoroproline | 462 ± 5 nm | 9.9 ± 2.9 s | 1.61 ± 0.05 | – | – | –
4 | insulin lispro: fast-acting insulin with inversion of the residues ProB28 and LysB29; Humalog, Eli Lilly [reference compound] | 466 ± 2 nm | – | 1.63 ± 0.07 | dissociated significantly more rapidly than human insulin | monomeric | increased negative ellipticity at 208 nm and decreased negative ellipticity at 222 nm
